The results in this text go back to publication PMC8251712.

In data set [1] the target is T1, Myb10-D (Pcold-Myb10-D fusion) (Triticum aestivum, UniProt C0SPG5 1-265). Kind of data set: EMSA. Background: A gel shift assay detects complexes by their altered migration in electrophoresis.
Data set [2] addresses T1, Myb10-D (Pcold-Myb10-D fusion). Kind of data set: EMSA. The source holds these as a separate data set.
Data set [3] shares this target. Kind of data set: competition.
The target is the same in data set [4]. Kind of data set: competition. This is another data set of the same source.
Data set [5] has the same target. Kind of data set: competition. This is another data set of the same source.

Numbering of substitutions follows the chain as printed.

B1: SDR 396500 WT (dsDNA)
DNA 1: CCGGATTGAGGGCCGGAGTAGCTGCAGGTGTGATCTCCCG
DNA 2: CGGGAGATCACACCTGCAGCTACTCCGGCCCTCAATCCGG
Consider B1, for which the binding result in data set [1] is reported as “no binding”.

B2: ABA3 269200 WT (dsDNA)
DNA 1: ACATCGTCGTTCATCACCAGCTAGCGAAGCAAACAAGGAG
DNA 2: CTCCTTGTTTGCTTCGCTAGCTGGTGATGAACGACGATGT
For the molecule B2, the binding result in data set [2] was “binds”.

B3: ABA3 269200 mu (dsDNA)
DNA 1: B2 DNA 1 with C18G, A19G, C21G, T22G, A23G
DNA 2: B2 DNA 2 with T18C, A19C, G20C, T22C, G23C
On to B3, for which, in data set [3], the binding result is “no binding”.

B4: NCED freeprobe2988mu (mutant competitor) (dsDNA)
DNA 1: ACGTAATCTTTGAACTTTTCGGGGGGAAACATTTCCACC
DNA 2: GGTGGAAATGTTTCCCCCCGAAAAGTTCAAAGATTACGT
As for B4, the binding result in data set [4] is “no binding”.

B5: NCED probe2988 (SMRE) (dsDNA)
DNA 1: ACGTAATCTTTGAACTTTTCACCAAATAAACATTTCCACC
DNA 2: GGTGGAAATGTTTATTTGGTGAAAAGTTCAAAGATTACGT
Regarding B5, in data set [2], the binding result is on record as “binds”.

B6: NCED freeprobe2988 (WT competitor) (dsDNA)
DNA 1: B5 DNA 1
DNA 2: B5 DNA 2
As for B6, in data set [5], the binding result is recorded as “binds”.

B7: AAO 343200 WT (dsDNA)
DNA 1: CACGAAGATTTCCCAGCTATCATCAATAAGACCAGGTCGC
DNA 2: GCGACCTGGTCTTATTGATGATAGCTGGGAAATCTTCGTG
Turning to B7, the binding result in data set [1] was “no binding”.
